Measured values published in the nanobody polyreactivity screen of Harvey et al. (2022).

Assay: yeast display, Sf9 membrane polyspecificity reagent, FACS + sequencing; frameworks hold sequencing errors
Outline: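 Galactose induction of a Saccharomyces cerevisiae BJ5465 synthetic nanobody display library ran 36–48 hours. The cells were then stained for 1 hour at 4 °C with 10% biotinylated, detergent-solubilized Sf9 membrane reagent, pulled down on streptavidin microbeads and FACS-sorted into low and high (top ~1%) gates on expression and reagent-binding fluorescence. Labels for polyreactivity follow the gate of origin.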

| Sequence | polyreactivity (PSR sort gate) |
| --- | --- |
| QVQLVESGGGLVQAGGSLRLSCAASGSTSVTNAMGWYRQAPGKEREFVATINYSGTSTYYADSVKGRFTISRDNAKNTVYLLMNSLKPEDTAVYYCNKTFVRGVHGVYLPITSYDYWAQGTQVTVSS | low polyreactivity |
| QDQLVESWGGLVQAGGSLRLSCAASGFTFRNNAMGWYRHAPWKERDLVASITARGGSTYYADTVKGRFTISRDNAINTVYVQLNILKTEDTAVYYSATDDYTWRRHPWYAGYDSWGQGTQVTVSS | low polyreactivity |
| QVQLVESGGGLVQAGGSLRLSCAASGVTFDAYVMGWYRQAPRKERELVAGIYSGGSTYYADSVKGRFTISRDNAKNTVYLQMNSLKPEDTAVYYCARENYRFAHEPPVSRQIPYDYWGQGTQVTVSS | low polyreactivity |
| QVQLVESGGGLVQAGGSLRLSCAASGSTIVRYAMGWYRQAPGKERELVAAISSRGGSTYYADSVKGRFTNSRDNAKNTVYLQMNSLKAEDTGVYYCAAAQRCTNAYRVGSWGLGTQVTVSS | high polyreactivity |
| QVQLVESGGGLVQAGGSLRLSCAASGFIFKYYAMGWYRQAPGKERELVAAITGSGGRTYYADSVKGRFTISRDNAKNTVYLQMNSLKPEDTAVYYCAADLGGNSRLDYWGQGTQVTVSS | high polyreactivity |
| QVQLVESGGGLVQAGGSLRLSCAASGIIFRFYAMGWYRQAPGKERELVAAIRTSGGSTYYADSVKGRFTISRDNAKNTVYLQMNSLKPEDTAGYYCAARFYNGWTKHNYWGQGTQVTVSS | high polyreactivity |
| QVQLVESRGGLVQAGGSLRLSCAASGRIFGTNAMGWYRQAPGRERELVATITRGGGNTYYADSVKGRFTISRDIAKNTVYLQMNSLKPEDTAVYYCAAKFHRFAWYSHYDYWGHGTQVTVSS | low polyreactivity |
| QVQLVESGGGLVQAGGSLRLSCAASGRIFYWNAMGWYRQAPGKERELVAAITYSTGSTYYADSVKGRFTISRDNAKNTVYLQMNSLKPEDTAVYYCAAEGPRGSWWALYDYWGQGTQVTVSS | low polyreactivity |
| QVQLVESGGGLVQAGGSLRLSCAASGSIFPAYAMGWYRQAPGKEREFVAAISGTGGITYYADSVKGRFTISRDNAKNTVYLQMNSLKPEDTEVYYCAAPVYNRYYYWGQGTQVTVSS | low polyreactivity |
| QVQLVESGGGLVQAGGSLRLSCAASGSIFFYNAMGWYRQAPGKERELVAAISRGGNTNYADSVKGRFTISRDNAKNTVNLQLNSLKPEDTAVYYCNADYSFWATPYWEYGYDYWGQGTQVTVTS | low polyreactivity |
| QVQLVESGGGLVQAGGSLRLSCAASGRIFYRYAMGWYRQAPGKERELVATITSGGGTHYADSVKGRFTISRDNAKNTVYLQMNSLKPEDTAVYYCAAVQWYGYPYYSWGQGTQVTVSS | low polyreactivity |
| QVQLEETGGGLVQAGGSLRLSCAASGFTIYRYALGSYRQAPGKERELVAAISSRGGTTYYADSVKGRFTISRDNAKNTVYLQMNSLKPEDTAVYYCNAGYYLTLDYWGQGTQVTVSS | high polyreactivity |
| QDQHVESVGGLVQAGGSLRLSCAASGRTFAWNAMGWYRQAPGKERELVAVITSGGSTNYADSVKGRFTISRDNAKNTVYLQMKSLKPEDTALYYCAAGHSWVYGYDYWGQGTQVTVSS | low polyreactivity |
| QVQLVESGGGLVQAGGSLRLSCAASGITFSYYAMGWYRPAPGKERELVAAINSGGGSTYYADSVKGRFTISRDNAKNTVFLQMNSLKPDDTAVYYCAARYRSRYEYYYDRDYWGQGTQVSVSS | low polyreactivity |
| QVQLVESGGGLVQAGGSLRLSCAASGSIFTRYAMGWYRQAPGKERELVAAITASGGRTYYADSVKGRFTISRDNAKNTVYLQMNSLKPEDTAVYYCNTYWRYTSQLPYDYWGQGTQVTVSS | high polyreactivity |
| QVQLVESGGGLVQAGGSLPLSCAASGRIFYTYAMGWYRQAPGKERELVAAITYRGGSTYYADSVKGRFTISRDNAKNTVYLQMNILIPEDTAVYYCAARPGRGPDSRWRYKYDYWGQGTQVTVSS | high polyreactivity |
| QVQLVESGGGLVQAGCSLRLSCAASGFTFYPYAMGWYRQAPGKERELVAAITRGGSTYYADSVKGRFTISRDNEKNTVYLQMNSLTPEDTAVYYCNAYWQGYGYDYWGQGTQVTVSS | low polyreactivity |
| QVQLVESGGGLVQAGGSLRLSCAASGRTFYRYTMGWYRQAPAKERELVAAISWSGGSTYYADSVKGRFTISRDNAKNTVYLQMNSLKPEDTAVNYCAKATYWLYVQWYTYGYWGQGTQVTVSS | high polyreactivity |
| QVQLVESGGGLVQAGGSLRLSCAASGGIFSRYAMGWYRQAPGKEREFVAAISFSGASTYYADSVKGRFTISRDNAKYTVYLQMNSLKPEDTAVYYCAAYWDAEGRRYTRLDYWGQGTQVTVSS | low polyreactivity |
| QVQLVESGGGLVQAGGSLRLSCAASGFTFGVYARGWYRQAPGKERELVAAISRSSGRTYYADSVKWRFTISRDNAKNTVYLQMNSLKPEDTAVYYCAADLRYYGYYTRFRYYEMDYWGQGTQVTVSS | high polyreactivity |
| QVQLVESGGGLVQAGGSLRLSSAASGNNFHFYAMGSYRQAPGKERELVATISWRGDGTYYADSVKGRFTISRDNAKNTVYLQMNSLKPEDTAVYYCAGRGVWPEYDYWGQGTQVNVSS | low polyreactivity |
| QVKLVESGGGLVQAGGSLRLTCDASGRIFSSYAMGWYRQAPGKERELVAAIRSSGDRTYYADSVKGRFTISRDNAKNTVYLQMNSLKPEDTAVYYCAARAVLKSWAYYYWGQGTQVTVSS | high polyreactivity |

| Sequence | polyreactivity (PSR sort gate) |
| --- | --- |
| QVQLVESGGGLVQAGGSLRLSCAASGRTSFGYAMGWYRQAPGKERELVAVISIGGTTYYADSVKGRFTISRDNAKNTVYLQMNSLKPEDTAVYYCAATPSNATGFLSYDYWGQGTQVTVSS | low polyreactivity |
| QVQLVESGGGLVQAGGSLRLSCAASGFTFGYYAMGWYRQAPGKERELVASISWRGGSTYYADSVKGRFTISRDNAKNTVYLQMNSLKPEDTAVYYCATKYTGPYYRTMNYWGQGTQVTVSS | high polyreactivity |
| QVQLVESGGGLVQAGGSLRLSCAASGNTFNPNAMGWYRQAPGKERELVAVIRFRGGSTYYADSVKGRFTISRDNAKNTVYLQMNSLKPEDTAVYYCNVYRGRYLYAWRPRGYWGQGTQVTVSS | high polyreactivity |
| QVQLVESGGVLVQAGGSLRLSCAASGSTFYRYAMGWYRQAPGKERELVAANTRGSRTYYADSVKGRFTISRDNAKNTVYLQMNSLKPEDTAVYYCAAYRDYGSYGSWGQGTQVTVSS | high polyreactivity |
| QVQLVESGGGLVQAGGSLRLSCAASGSIFFYYSMGWYRQAPGKERELVAAISLSGGRTYYADSVKGRSTISRDNAKNTVYLQMNSLKPEDTAVYYCNAASLSGRGQSYHYHGYDYWGQGTQVTVSS | high polyreactivity |
| QVQLVETGGGLVQAGGSRRVSCAASGFIFWWYPMGWYRQSPGKERELVAAISGRGGSTYYADSVKRRFTISRDNAKNTVYLQMNSQKPEDTAVYYCAARLPWSYYRTQGYNYGGQGTQVTVSS | high polyreactivity |
| QVQLVESGGGLVQAGGSLRLSCAASGSTFYANVMGWYRQAPGKDRELVGAIEGSGGRTDYADSVKGRFTISRDNAKNTVYLQMHSLKPEDTAVYYCAKKRIVPVKQFGRDYNYWGQGTQVTVSS | high polyreactivity |
| QVQLVESGGGLVQAGGSLRLSCAASGFTFYRYAMGWYRQAPGKERELVAAISSTGDRTYYADSVKGRFTISRDNAKNTVYLQMNSLKPEDTAVYYCAAPYQNQVEFNYWGQGTQVTVSS | high polyreactivity |
| QVQLVESGGGLVQAGGSLRLSCAASGTFGYYTMGWYRQAPGHERELVAAITRSGGSTYDADSVKGRFTISRDNAKNTVYLQMNSLKPEDTAVYYCATELHAWSSWNRYRAYYYWGQGTQVTVSS | high polyreactivity |
| QVQLVESWGGLVQAGGSLRISCAASGRISYGYAMGWYRQAPGKERELVAAISRSGGTTYYADSVKGRFTISRDNAKNTVYLQMNSLNPEDTAVYYCAAGDAYYTEALPFGDYDYWGQGTQVTVSS | low polyreactivity |
| QVQLVESGGGVVQAGGSLRLSCAASGRISDVYVMGWYRQAPGKERELVAAITWSGGDTYYADSVKGRFTISRDNAKNTVYLQMNSLKPEDTAVYYCNADTGKWGGNGWYEFDYWGQGTQVTVSS | low polyreactivity |
| QVQLVESGGGLVQAGGSLRLSCAASGLTSRPYVMGWYRQAPGKERDLVAAISQTGGRTYYADSVKGRFTISRDNAKNTVYLQMNSLKPEDTAVYDCAAKYSNGSGFDYWGQGTQVTVSS | high polyreactivity |
| QVQLVESGGGLVQAGGSLRLSCAASGLTFDVYAMGWYRQAPGKERELVAALSTSGGRTYSADSVKGRFTISRDNAKNTVYLQMNSLKPEVTAVYYCNAGYDYYWRYYWYWYAFNYWGQGTQVTVSS | high polyreactivity |
| QVQLVESGGGLVQAGGSLRLSCAASGSTFNRNTMGWYRQAPGKERELLAAISRRGGSTYYADSVKGRFTISRDNAKNTVYLQMNSLKPEDTAVYYCAAGREYRVYKGAQEFDYWGQGTQVTVSS | high polyreactivity |
| QVQHVESVGGLVQAGGRLRLSSAASGSIFSYNAMGWYRQAPVKERQLVARITRGGDGTYYADSVMVRFTISRDNAKNTVYLQMNSLKPEDTAVYYCAGTPYWYHLRVEGGYWGQGTQVTVSS | low polyreactivity |
| QVQLVESGGGLVQAGGSLRLSCAASGYIFSINAMGWYRQAPGKERELVAAITSSGGSTYYADSVKGRFTISRDNAKNTVYLQMNSLKPEDTAVYYCNAYVRRTRDYDYWGQGTQVTVSS | high polyreactivity |
| QVQLVESGGGLVQAGGSLRLSCAASGFTFWRYAMGWYRQAPGKDRELVAAISWRGSSTYYADSVKGRFTISRDNAMNTVYLQMNSLKPEDTAVSYCARYQSTYDSTYNYWGQGTQVTVSS | high polyreactivity |
| QVQLVESGGGLVQAGGSLRLSCAASGSTFYEYAMGWYRQAPGKERELVAAISWSDVDTYYADSVKGRFTISRDNAKNTVYLQMNSLKPEDTAVYYCAAEWYHPYTQEMDYWGQGTQVTVSS | high polyreactivity |
| QVQLVESGGGLVQAGGSLRLSCAASGSIFFLYAMGWYRQAPGKERELVAAISRDGRTNYADSVKGRFTISRDNAKYTVYLQMKSLKPEDTAVYYGAKDGNHPGAVGYGYWGQGTQVTVSS | low polyreactivity |
| QVQLVESGGGLVHAGGSLRLSCAASGSIFGFYTMGWYRQAPGKERELVAAITWSGGRTYYADSVKGRFTISRDNAKNTVYLQMNSLKPEDTAVYYCNRDGRSRWYYASAGYNYWGQGTQVTVSS | high polyreactivity |
| QVQLVESGGCLVQAGCSLRLSCAASGRTFRTYVMGWYRQAPGKEREFVAGITWSSGSTRYADSVKGRFTISRDNAKNTVYLQMNSLKPEDTAVYYCNATPFYLLYSHTYIQYEGDYWGQGTQVTVSS | high polyreactivity |
